# According to the supplement of paper PMC12764529:
# ± gives the half width of the 95% confidence interval.
# Columns and labels:
# [1] = folding stability dG unfold from trypsin proteolysis; higher = more stable
# Procedure, shortened: (§1)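 K50 was inferred by Bayesian fitting of sequencing counts obtained after protease digestion of designed mini-proteins. Unfolding free energy was derived by comparison with a sequence-predicted unfolded-state K50 and a shared folded-state K50, for each protease or both combined. The mini-proteins were under 80 residues, had no cysteine, were carried in a PA-tagged cDNA display construct, and were kept only if AlphaFold2 dimer inter-PAE exceeded 15.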
# [2] = folding stability dG unfold from chymotrypsin proteolysis; higher = more stable
# Procedure, shortened: as §1
# [3] = folding stability dG unfold (combined trypsin and chymotrypsin); higher = more stable
# Procedure, shortened: as §1
Sequence,folding stability dG unfold [1] [kcal/mol],folding stability dG unfold [2] [kcal/mol],folding stability dG unfold [3] [kcal/mol]
SAGGSAGGSGVEITLPNKDELIEYLKKKFAEKGGKIKKIKIEPIGPNMYKALIETDPNDPYFKSAGGSAGGS [r12_647_TrMRF],0.759 ± 0.069,0.532 ± 0.17,0.611 ± 0.13
SAGGSAGGSGYTTTTSTSISLSPTSFTVTTTTTTTDPVTKTTTVTTTTTTVPLPPSLLSLVSSSAGGSAGGS [r12_885_JUSTAS],2.21 ± 0.17,2.97 ± 0.052,2.5 ± 0.2
SAGGSAGGSIEIFKSPEGWYVRIWFPGKPQVIPIDDAEDLKNFEIPIPNGRPIKVEILPPKDLSAGGSAGGS [r12_730_TrROS],1.66 ± 0.047,2.32 ± 0.032,2.13 ± 0.059
SAGGSAGGSIFIHWTYEMEHERDPDDPDEPRMKMKIKDWVISIPEDDPDKLKELADKLGIPIISAGGSAGGS [r12_249_TrROS],0.577 ± 0.087,1.69 ± 0.068,1.24 ± 0.11
SAGGSAGGSIKIPPGQMIHIRYEHGGKKREYSFTIDPNDGKIDEIIPPDNLPGYKIEEIHIVPSAGGSAGGS [r12_6_TrROS],-0.431 ± 0.33,0.729 ± 0.3,0.307 ± 0.34
SAGGSAGGSIKITIYDIMRMLGPNAPPAEWVEKVKHLAKWLADKLGLPDVEIEVEVMSPDQFPSAGGSAGGS [r12_666_TrROS],3.3 ± 0.25,4.49 ± 0.13,4.06 ± 0.17
SAGGSAGGSILVIKIKFPGNGRPIHYPIKDPEDFDRVLKKAKERFPGYDKDNIKEAEIYPLPPSAGGSAGGS [r12_852_TrROS],-0.436 ± 0.22,-0.00689 ± 0.29,-0.0696 ± 0.17
SAGGSAGGSISIDPAKVLEVKTRANGQLLITTEDEVYVVDPSTGTVTKITKEEAEKLPEDVPLLSAGGSAGG [r6_890_JUSTAS],1.9 ± 0.042,1.94 ± 0.037,1.96 ± 0.15
SAGGSAGGSITPEEAKALAEEIKKALGVPDVEVLEIRVERDPERDFYTADIVIRLPDGSVIRASAGGSAGGS [r12_508_TrMRF],2.05 ± 0.051,1.04 ± 0.064,1.7 ± 0.11
SAGGSAGGSITVEVEVEIVDEVEDPNTQGYRPVRVSRIPITIPVPESWSEEDIEAAVKEAIEKASAGGSAGG [r6_494_JUSTAS],1.1 ± 0.047,2.13 ± 0.022,1.7 ± 0.15
SAGGSAGGSIVFRSPEQAKEWLDNFPPGNEVNIHVQGPDTGQPQEFEIKIPPPKPEYDPDGKPSAGGSAGGS [r12_393_TrROS],-0.124 ± 0.088,-0.773 ± 0.54,-0.169 ± 0.32
SAGGSAGGSKAGQPIEGPVKIKFTSNGKPHEIDVEVYVLPPGNLIIYFPDESIMLPADNIEIESAGGSAGGS [r12_790_TrROS],1.09 ± 0.072,1.91 ± 0.078,1.6 ± 0.063
SAGGSAGGSKEEIRKRIAERLRELIPDAKITSIEFDEKTKKITITVDSPEVREALEKLPGIKPSAGGSAGGS [r12_623_TrROS_Hall],1.49 ± 0.037,1.63 ± 0.088,1.53 ± 0.11
SAGGSAGGSKEKVIEIKIKVKTKEEAKKKAEELAKELEKKGYKIKKVEIKYDKETKEVTVRIESAGGSAGGS [r20_155_TrROS_Hall],3.9 ± 0.2,4.02 ± 0.097,3.95 ± 0.12
SAGGSAGGSKEKYIKIVVEVNGEKKVIVVKAKTIEELEELAKKLNLEVEIEKREDGYLVIRLKSAGGSAGGS [r12_810_TrROS_Hall],3.21 ± 0.053,3.36 ± 0.058,3.29 ± 0.058
SAGGSAGGSKELLKNLPPGAKITVEKKEDGTVRITITNKDGSEKEIEIKVNGKIIKLTIKKKPSAGGSAGGS [r20_50_TrROS_Hall],2.04 ± 0.098,0.245 ± 0.42,1.04 ± 0.32
SAGGSAGGSKETLTIKIKVEVKDENGEKKEVTVTLTIKAETKEEAEALLKELKEKYPNVKVEPSAGGSAGGS [r12_1043_TrROS_Hall],2.7 ± 0.38,2.9 ± 0.11,2.93 ± 0.23
SAGGSAGGSKGKKITIILPPGMPPDAIKNWLAPLGINITIEPIPVVKPKRDPDDGEETYEPYGSAGGSAGGS [r12_80_TrROS],0.73 ± 0.1,0.596 ± 0.24,0.579 ± 0.2
SAGGSAGGSKITSIEEKDGFVRITIEVDGKTETKTIPKENLPPNITFPPGAKVKIEKVSKEDLSAGGSAGGS [r12_1005_TrROS_Hall],0.449 ± 0.04,1.74 ± 0.043,1.32 ± 0.073
SAGGSAGGSKITSIQPHDGFWRIEIKPDGKPQERWINMDELPPNIKIPPGYKVKIEPFSPGDMSAGGSAGGS [r12_1005_TrROS],-0.0148 ± 0.14,-0.769 ± 0.92,-0.26 ± 0.26
SAGGSAGGSKKAEELAKKLGLEVEIVKVEKKKDGSEVVIVKIKNKDGSELTLVVKDGKVELFPSAGGSAGGS [r12_279_TrROS_Hall],1.79 ± 0.081,2.44 ± 0.073,2.24 ± 0.079

Sequence,folding stability dG unfold [1] [kcal/mol],folding stability dG unfold [2] [kcal/mol],folding stability dG unfold [3] [kcal/mol]
SAGGSAGGSKKALVVFYNPETGEVEVLEVEGDADLLKELFEPGTVVEIRVGDEVITIYPEDLKSAGGSAGGS [r20_36_TrMRF],1.51 ± 0.085,2.41 ± 0.054,2.11 ± 0.058
SAGGSAGGSKKIKIKVKVKNPKTKKYYEIEIEISEEELKEGKLTKEQIKKELEKLGYEVEIVPSAGGSAGGS [r20_221_TrROS_Hall],3.26 ± 0.15,2.6 ± 0.07,2.9 ± 0.095
SAGGSAGGSKKKITRIVITDFDPETGKVTVRIRNENGEEETIEVETLEELKELFPDVEVEVIPSAGGSAGGS [r12_403_TrROS_Hall],2.45 ± 0.049,2.09 ± 0.044,2.24 ± 0.059
SAGGSAGGSKKKKIEIIIVMSKEEAEKIAEELKKKYNIKEIKIKVIPLKKNSPKVKELLKKLKSAGGSAGGS [r12_649_TrROS_Hall],1.03 ± 0.071,1.92 ± 0.12,1.62 ± 0.37
SAGGSAGGSKKKKKKVKKKKVYRVKIKTKDGKLIEIEVSVEDLEKIKKAAEKAGFEIVEIEPVSAGGSAGGS [r12_891_TrROS_Hall],2.39 ± 0.076,3.86 ± 0.18,3.42 ± 0.2
SAGGSAGGSKKKKKVKYKIKVINPEKPEVKEIEIEAENEEEAKKLAEELAKKYPGVKVEIEKTSAGGSAGGS [r12_601_TrROS_Hall],1.08 ± 0.07,2.95 ± 0.064,2.48 ± 0.095
SAGGSAGGSKKKPYIIKIYYKDPKTKKKSKKEILVSGKVKNPEKFAKEAAKKLGPVGKVEFKPSAGGSAGGS [r12_942_TrMRF],-0.0324 ± 0.084,0.757 ± 0.15,0.537 ± 0.098
SAGGSAGGSKKKVKVEIVEYDPETKKVTVRVTVDGKEYEFTFSTPEELEAAAKAGKIDEITLTSAGGSAGGS [r12_421_TrROS_Hall],2.26 ± 0.059,2.29 ± 0.043,2.26 ± 0.066
SAGGSAGGSKKPKAKIKKIEFFPEGNKIVALVEFPDKVIKEIVFENLPPEEAIKKALEFAKKGSAGGSAGGS [r20_181_TrMRF],1.08 ± 0.036,1.42 ± 0.039,1.31 ± 0.12
SAGGSAGGSKKTVLVRITVTLPNGEKREIELEVEVDSVEDLKELLKKLPLPPGMKVTIEVVPASAGGSAGGS [r20_162_TrROS_Hall],4.48 ± 0.31,3.4 ± 0.2,4.16 ± 0.31
SAGGSAGGSKKVEIKVKVKITNENGETLEVTATIVFDEKTGELYIYDEKTGKVYKISLDDIEPSAGGSAGGS [r12_772_TrROS_Hall],2.03 ± 0.082,3.94 ± 0.077,3.53 ± 0.09
SAGGSAGGSKLRLVLKFKTPEEAEEAARKLAEELKKKEGVKEVKVSVVKVNGEYYVVVEVEKESAGGSAGGS [r12_7_TrROS_Hall],2.53 ± 0.27,4.15 ± 0.11,3.72 ± 0.25
SAGGSAGGSKMLLVKVYIEETKEEIVIEVPEGMTLEEIAERLRELGYKIKKIEVYELPPPPEESAGGSAGGS [r12_955_TrROS_Hall],3.82 ± 0.18,4.25 ± 0.078,4.11 ± 0.3
SAGGSAGGSKMVLKVTLENGKTIEIEAGETIEEIKAKIEEEFGKPVKIKVEKVSAEELGLKPESAGGSAGGS [r12_379_TrROS_Hall],0.304 ± 0.13,1.59 ± 0.055,1.33 ± 0.17
SAGGSAGGSKNVKTVTIPFNNMSPSKFIEQIKNHPVDAIEIEMPDPWYRRFLNWLKDEGIKVISAGGSAGGS [r12_610_TrROS],1.27 ± 0.053,1.49 ± 0.18,1.49 ± 0.12
SAGGSAGGSKPDTIKITFPDGFEIEINGPGMIMIRFPEQGYIFRIPIDPDKNEIKIEIVEPLPSAGGSAGGS [r12_539_TrROS],2.43 ± 0.11,3.39 ± 0.045,3.05 ± 0.13
SAGGSAGGSKPELVIPITFPVLVKNPLDGKIYPVKVEIHIFYYPDKPIIEITLINPDGKPFPFSAGGSAGGS [r12_283_TrMRF],2.13 ± 0.064,1.67 ± 0.038,1.93 ± 0.066
SAGGSAGGSKPGEVYEVKVKIKDKETGKYYEVKVKVYRLEDGTLLIEVDGKIFEVPVKDIEIESAGGSAGGS [r12_790_TrROS_Hall],3.25 ± 0.2,4.2 ± 0.082,3.99 ± 0.11
SAGGSAGGSKPIPYRVKIPSPNGKTHKFDVQIQVRPDGMIDIHVPSGKTIHIPANYPVEIEPWSAGGSAGGS [r20_227_TrROS],0.132 ± 0.13,-0.208 ± 0.52,0.056 ± 0.21
SAGGSAGGSKPTLTLEIVLPPEMTLEQLEELARALAEELGLDEVEVRVERRPDGYLRITITVKSAGGSAGGS [r20_208_TrROS_Hall],3.63 ± 0.18,3.45 ± 0.091,3.59 ± 0.12
